Assay results published in publication PMC548802.

Legend:
[1] = target: tetranectin with substitution of threonine 149 with tyrosine (TN^T149Y) (human) (UniProt P05452); assay: ELISA
[2] = target: tetranectin in which lysine 148 was replaced with alanine (TN^K148A) (human) (UniProt P05452); assay: ELISA

| ELISA specific binding (OD 450, binding to BSA subtracted) [1] [OD 450] | ELISA specific binding (OD 450, binding to BSA subtracted) [2] [OD 450] | Substance |
| --- | --- | --- |
| 1.73 |  | human plasminogen (natural protein) |
| 0.43 |  | recombinant human angiostatin containing kringle domains 1-3 (AST^K1-3) (domain or fragment) |
| 1.83 | 0.06 | recombinant human angiostatin containing kringle domains 1-4 (AST^K1-4) (domain or fragment) |
